The source of these data is publication PMC6969062, “Ultrasensitive nano-aptasensor for monitoring retinol binding protein 4 as a biomarker for diabetes prognosis at early stages”.

In the data set the target is RBP4 (retinol binding protein 4) (Homo sapiens, UniProt P02753 19-201). As to the kind of experiment: aptamer-antibody sandwich chemiluminescence on streptavidin wells; 2 mM Mg2+, 1 mM Ca2+; linear range 0.001-2 ng/mL, LOD 951 fg/mL; Binding buffer 20 mM Tris-HCl pH 7.6, 100 mM NaCl, 2 mM MgCl2, 5 mM KCl, 1 mM CaCl2, 0.02% Tween-20; RBP4 1 h (temperature not stated), reporter antibody step 1.

B1: RBA (RBP4 aptamer), biotin-T10 (ssDNA)
DNA: TTTTTTTTTTATACCAGCTTATTCAATTACAGTAGTGAGGGGTCCGTCGTGGGGTAGTTGGGTCGTGGAGATAGTAAGTGCAATCT
As for B1, the binding result is on record as “binds”.
